Common to all, as to test: cell-based or functional assay
Assay [1] deals with HIV-1 envelope (Env) spike trimer of strain 6535.3 (HIV-1 strain 6535.3).
Assay [2] deals with HIV-1 envelope (Env) spike trimer of strain SC4226618 (HIV-1 strain SC4226618).
Assay [3] has as its target HIV-1 envelope (Env) spike trimer of strain CAP210 (HIV-1 strain CAP210).

As for 3BNC60-62 bp-3BNC60 homo-diFab, the neutralization potency (IC50) compared with 3BNC60 IgG against HIV-1 6535.3 in assay [1] is 100 fold.

Regarding “PG16-60 bp-b12 hetero-diFab (bispecific antibody)”, the neutralization potency compared with the mixture of Fabs plus dsDNA or the more potent of the two Fabs alone in assay [2] and in assay [3] was 10 fold each time.

The record behind these values is patent US20160102137A1.
